What was measured:
[1] = target: purified human PSA (shorter isoform), mCherry-Strep-tag II removed by thrombin (human, UniProt P55786-1 45-919); experiment: cryo-EM structure
cryo-EM structure = target: the molecule itself; experiment: cryo-EM structure

Sequence of purified human PSA (shorter isoform), mCherry-Strep-tag II removed by thrombin (P55786 45-919): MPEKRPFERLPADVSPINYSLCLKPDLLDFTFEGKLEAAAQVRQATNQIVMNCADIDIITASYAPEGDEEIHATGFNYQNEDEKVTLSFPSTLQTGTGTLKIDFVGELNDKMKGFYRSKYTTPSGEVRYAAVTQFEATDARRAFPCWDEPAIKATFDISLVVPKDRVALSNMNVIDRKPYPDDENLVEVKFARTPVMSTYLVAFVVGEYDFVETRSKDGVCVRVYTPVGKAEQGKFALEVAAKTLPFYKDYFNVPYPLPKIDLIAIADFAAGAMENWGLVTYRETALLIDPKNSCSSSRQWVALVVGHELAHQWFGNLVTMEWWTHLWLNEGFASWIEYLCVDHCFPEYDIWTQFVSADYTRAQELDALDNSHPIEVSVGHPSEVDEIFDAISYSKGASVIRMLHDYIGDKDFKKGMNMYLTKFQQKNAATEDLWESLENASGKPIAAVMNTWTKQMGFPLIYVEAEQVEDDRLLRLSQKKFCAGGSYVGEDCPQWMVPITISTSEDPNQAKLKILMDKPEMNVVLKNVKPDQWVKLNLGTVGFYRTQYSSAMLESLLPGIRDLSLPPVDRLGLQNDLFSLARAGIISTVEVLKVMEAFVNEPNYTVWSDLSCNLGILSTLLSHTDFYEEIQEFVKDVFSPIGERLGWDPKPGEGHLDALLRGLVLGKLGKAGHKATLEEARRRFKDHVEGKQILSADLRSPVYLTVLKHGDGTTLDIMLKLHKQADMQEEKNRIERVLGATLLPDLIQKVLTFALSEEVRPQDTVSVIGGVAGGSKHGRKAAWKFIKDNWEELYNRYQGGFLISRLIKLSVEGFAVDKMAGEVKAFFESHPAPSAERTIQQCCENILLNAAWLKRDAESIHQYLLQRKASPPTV

- binding result [1]: binds
B1: purified human SWELL1 homo-hexamer, tag removed by thrombin (cryo-EM sample) (natural protein)
chain: MIPVTELRYFADTQPAYRILKPWWDVFTDYISIVMLMIAVFGGTLQVTQDKMICLPCKWVTKDSCNDSFRGWAAPGPEPTYPNSTILPTPDTGPTGIKYDLDRHQYNYVDAVCYENRLHWFAKYFPYLVLLHTLIFLACSNFWFKFPRTSSKLEHFVSILLKCFDSPWTTRALSETVVEESDPKPAFSKMNGSMDKKSSTVSEDVEATVPMLQRTKSRIEQGIVDRSETGVLDKKEGEQAKALFEKVKKFRTHVEEGDIVYRLYMRQTIIKVIKFILIICYTVYYVHNIKFDVDCTVDIESLTGYRTYRCAHPLATLFKILASFYISLVIFYGLICMYTLWWMLRRSLKKYSFESIREESSYSDIPDVKNDFAFMLHLIDQYDPLYSKRFAVFLSEVSENKLRQLNLNNEWTLDKLRQRLTKNAQDKLELHLFMLSGIPDTVFDLVELEVLKLELIPDVTIPPSIAQLTGLKELWLYHTAAKIEAPALAFLRENLRALHIKFTDIKEIPLWIYSLKTLEELHLTGNLSAENNRYIVIDGLRELKRLKVLRLKSNLSKLPQVVTDVGVHLQKLSINNEGTKLIVLNSLKKMANLTELELIRCDLERIPHSIFSLHNLQEIDLKDNNLKTIEEIISFQHLHRLTCLKLWYNHIAYIPIQIGNLTNLERLYLNRNKIEKIPTQLFYCRKLRYLDLSHNNLTFLPADIGLLQNLQNLAITANRIETLPPELFQCRKLRALHLGNNVLQSLPSRVGELTNLTQIELRGNRLECLPVELGECPLLKRSGLVVEEDLFNTLPPEVKERLWRADKEQA
- stoichiometry N (cryo-EM structure): 6

Reference: publication PMC12407707 (bioRxiv, 2025)
